According to patent US5747239A, “Synthetic peptides specific for the detection of antibodies to HCV, diagnosis of HCV infection and preventions thereof as vaccines” (United Biomedical, Inc., priority 1994, dated 1998):

Key:
Format in all cases: binding, human
antibodies to HCV [1] = assay: Peptide ELISA for relative immunoreactivity, 8 member HCV serum panel (Panel I)
Protocol: As an example to illustrate how relative (%) immunoreactivity for HCV synthetic peptides is measured, wells of 96-well plates are coated for 1 hour at 37° C., with each of the following peptides: IIH, V, VIIIE and pep11 at 5 ug/mL at 100 uL per well in 10 mM NaHCO3 buffer, pH 9.5. The peptide coated wells were then incubated with 250 uL of 3% by weight of gelatin in PBS in 37° C. for 1 hour to block non-specificprotein binding sites, followed by three washes with PBS containing 0.05% by volume of TWEEN 20 and then dried. The test specimens containing a panel of eight well-characterized HCV antibody positive patient sera were diluted with PBS containing 20% by volume normal goat serum, 1% by weight gelatin and 0.05% by volume TWEEN 20 at dilutions of 1:20 volume to volume, respectively. 200 uL of the diluted specimens were added to each of the wells and allowed to react for 15 minutes at 37° C.
The wells were then washed six times with 0.05% by volume TWEEN 20 in PBS in order to remove unbound antibodies. Horseradish peroxidase conjugated goat anti-human IgG was used as a second antibody tracer to bind with the HCV antibody-peptide antigen complex formed in positive wells. 100 uL of peroxidase labeled goat anti-human IgG at a dilution of 1:1800 in 1% by volume normal goat serum, 0.05% by volume TWEEN 20 in PBS was added to each well and incubated at 37° C. for another 15 minutes.
The wells were washed six times with 0.05% by volume TWEEN 20 PBS to remove unbound antibody and reacted with 100 uL of the substrate mixture containing 0.04% by weight orthophenylenediamine (OPD) and 0.12% by volume hydrogen peroxide in sodium citrate buffer, pH 5.0.
This substrate mixture was used to detect the peroxidase label by forming a colored product. Reactions were stopped by the addition of 100 uL of 1.0M H2 SO4 and the A492 mm measured. Results of relative immunoreactivity for each of the peptides obtained from this study are shown in Table A using peptide II H as the reference.

antibodies to HCV [2] = assay: NS-1 peptide ELISA, Panel II (asymptomatic individuals, mainland China and Taiwan)
Protocol: Wells of 96-well plates were coated for 1 hour at 37° C. with each of the 16 peptides (designated as peptides 241A-C, 231A-E, 232A-D, 233C, 234A-C), synthesized according to sequences derived from the NS-1 region (Table 3A), at 5 ug/mL at 100 uL per well in 10 mM NaHCO3 buffer, pH 9.5. Each peptide's immunoreactivity was measured as previously described (see Example 1), using an 8 member serum panel (Panel I).
A panel of serum samples from individuals coming from regions in which hepatitis C is endemic, namely mainland China and Taiwan, were tested for evidence of reactivity to these NS-1 protein derived peptides. Twenty-four samples were chosen from individuals who had no recognizable symptoms of non-A, non-B hepatitis and for whom the peptide based HCV EIA, Format C, as described in Example 11, was nonreactive. Seven of the 24 samples (29%) were reactive against one or more peptides from the NS-1 region, indicative of the presence of long term protective antibodies responsive to this region. This 7 member panel (designated as Panel II, CH1-CH7) was used to further characterize these NS-1 peptides for their immunoreactivity.
The peptide with the greatest reactivity against the serum Panel II again was pep1 (designated 231c in Table 3A). Using this peptide as a standard, the relative immunoreactivity for each of the other 15 peptides from the NS-1 region are calculated in Table 3A.

antibodies to HCV [3] = assay: Envelope/NS-1 peptide ELISA, anti-HCV positive plasmapheresis donors with elevated ALT (Panel III); details: envelope/NS-1 peptides; Panel III (17 samples); peptide 254B as a standard
Protocol: To select a panel of samples with reactivity to peptides from the envelope/NS-1 region, 97 such samples from anti-HCV positive plasmapheresis donors with elevated ALT levels were tested with peptide 254B. […] 17 samples with the greatest reactivity with peptide 254B were chosen to form a third panel (Panel III) to screen for the immunoreactivity of the other 20 peptides from the envelope/NS-1 region. The individual absorbance values of each of the 17 samples on the four peptides with the greatest reactivity, i.e. 255C (pep7), 254B (pep8), 247B (pep9), and 246D (pep10), are listed in Table 8b.

antibodies to HCV [4] = assay: EIA of NS-3 peptides before and after pH adjustment
Protocol: Peptides dissolved at 1 mg/mL in H2 O, pH 4, were titrated to pH 11 by addition of diluted NaOH. After 5 min at pH 11, the pH of the peptide solution was brought down to 7.0 using diluted HCl. Immunoreactivity of the peptides thus treated was compared with reactivity prior to pH adjustment (Table 4E). Two-to three-fold increases in A492 nm were seen. Some previously non-reactive serum samples were able to react with pH adjusted peptides. For instance, serum sample 1, which is non-reactive to 261C, has an absorbance of 1401 mA when tested with the corresponding pH adjusted peptide.

[5] = NS-3 peptides (Table 4A), Panel I, relative to pep3 (279A)
[6] = Arima clone 1 peptides, relative to peptide VIIIE
[7] = capsid peptides, Panel I, relative to VIIIE, coated at 5, 1 and 0.2 μg/mL
[8] = NS-5 peptides (Table 12), Panel I, pep11 as a standard
[9] = serum sample 1, Ctrl (prior to pH adjustment)
[10] = serum sample 1, pH adj (pH 11 for 5 min, then 7.0)

## FTDNSSPPVVPQSFQVAHLHAPTGSGKSTKPAAYA [278B]
Antibodies to HCV [1]; [5]
  % IP: 1.4%

## KKQRRYKEKEKTATNNPGKNKKPRVGRIKNWNREGRKDAYQIRKRR (NDTHKKQRRYKEKEKTATNNPGKNKKPRVGRIKNWNREGRKDAYQIRKRR) [50 mer, reference compound]
Antibodies to HCV [1]; [6]
  % Relative Immunoreactivity: 17.8%

## PPLGNWFGCTWMNSTGFTKVCGAPPC [232A]
Antibodies to HCV [2]; NS-1 peptides, Panel II (CH1-CH7), relative to pep1 (231C)
  % IP: 88.7%
Antibodies to HCV [2]; Panel II sample CH-1
  A492 nm by EIA (mA): 202 mA
Antibodies to HCV [2]; Panel II sample CH-2
  A492 nm by EIA (mA): 261 mA
Antibodies to HCV [2]; Panel II sample CH-3
  A492 nm by EIA (mA): 935 mA
Antibodies to HCV [2]; Panel II sample CH-4
  A492 nm by EIA (mA): 1498 mA
Antibodies to HCV [2]; Panel II sample CH-5
  A492 nm by EIA (mA): 621 mA
Antibodies to HCV [2]; Panel II sample CH-6
  A492 nm by EIA (mA): 1128 mA
Antibodies to HCV [2]; Panel II sample CH-7
  A492 nm by EIA (mA): 552 mA

## GPRLGVRATRKTSERSQPRGRR [VIIIA]
Antibodies to HCV [1]; [7]
  % Relative Immunoreactivity: 32.7%

## TQGCNCSIYPGHITGHRMAWDMMMWSPTA [254A]
Antibodies to HCV [3]
  % Relative Immunoreactivity: 21.4%

## TWAQPGYPWPLYGNEGCGWAGWLLSPRGSRPSWGPTDPRRRSRNLG [IXC]
Antibodies to HCV [1]; [7]
  % Relative Immunoreactivity: 57.9%

## PVVPQSFQVAHLHAPTGSGKSTKVPAAYAAQGYKVLVLNPS [272A]
Antibodies to HCV [1]; [5]
  % IP: 2.1%

## PVVPQSFQVAHLHAPTGSGKSTKVPAAYA [278A]
Antibodies to HCV [1]; [5]
  % IP: 8.2%

## SECTTPCSGSWLRDIWDWICEVLSDFKTWLKAKLMPQL [314B]
Antibodies to HCV [1]; [8]
  % IP: 11.6%

B1: AVDFIPVENLETTMRSPVFTDNSSPPVVPQSFQVAHLHAPTGSGKSTKVPAAYAAQGYKVLVLNPS (peptide)
chain: AVDFIPVENLETTMRSPVFTDNSSPPVVPQSFQVAHLHAPTGSGKSTKVPAAYAAQGYKVLVLNPS
Antibodies to HCV [4]; [9]
  A492 nm (mA) by EIA: 8 mA
Antibodies to HCV [4]; [10]
  A492 nm (mA) by EIA: 973 mA
Antibodies to HCV [4]; serum sample 2, Ctrl
  A492 nm (mA) by EIA: 74 mA
Antibodies to HCV [4]; serum sample 2, pH adj
  A492 nm (mA) by EIA: 255 mA
Antibodies to HCV [4]; serum sample 3, Ctrl
  A492 nm (mA) by EIA: 29 mA
Antibodies to HCV [4]; serum sample 3, pH adj
  A492 nm (mA) by EIA: 141 mA
Antibodies to HCV [4]; serum sample 4, Ctrl
  A492 nm (mA) by EIA: 17 mA
Antibodies to HCV [4]; serum sample 4, pH adj
  A492 nm (mA) by EIA: 158 mA
Antibodies to HCV [1]; [5]
  % IP: 11.8%

B2: GRRQPIPKVRRPEGRTWAQPGYPWPLYGNEGCGWAGWLLSPRGSRPSWGPTDPRRRSRNLG (peptide)
peptide: GRRQPIPKVRRPEGRTWAQPGYPWPLYGNEGCGWAGWLLSPRGSRPSWGPTDPRRRSRNLG
Antibodies to HCV [1]; [7]
  % Relative Immunoreactivity: 50.2%

B3: AEEDEREISVPAEILRKSRRFAQALPVWARPDYNPPLVETWKKPDYEPPVVHGCPLPPPKSPPVPPPRKKRT (peptide)
chain: AEEDEREISVPAEILRKSRRFAQALPVWARPDYNPPLVETWKKPDYEPPVVHGCPLPPPKSPPVPPPRKKRT
Antibodies to HCV [1]; [8]
  % IP: 97.2%

B4: GGAYDIIICDECHSTDATSILGIGTVLDQAETAGARLVVLATATPPGSVTVPHPNIEEVALSTTGEIPFYGKAIPLEVIKGGRHLIFCHSKKKCDEL (peptide)
chain: GGAYDIIICDECHSTDATSILGIGTVLDQAETAGARLVVLATATPPGSVTVPHPNIEEVALSTTGEIPFYGKAIPLEVIKGGRHLIFCHSKKKCDEL
Antibodies to HCV [1]; Panel I, reactive with only one of eight
  absorbance of the one reactive panel member: 307 mA

B5: KKGEASNGEAENDTHKKQRRYKEKEKTATNNPGKNKKPRVGRIKNWNREGRKDAYQIRKRR (peptide)
peptide: KKGEASNGEAENDTHKKQRRYKEKEKTATNNPGKNKKPRVGRIKNWNREGRKDAYQIRKRR
Antibodies to HCV [1]; [6]
  % Relative Immunoreactivity: 20.7%

B6: GCSGGAYDIIICDECHSTDATSILGIGTVLDQAETAGARLVVLATATPPGSVTVPHPNIEEVAL (peptide)
chain: GCSGGAYDIIICDECHSTDATSILGIGTVLDQAETAGARLVVLATATPPGSVTVPHPNIEEVAL
Antibodies to HCV [4]; [9]
  A492 nm (mA) by EIA: 628 mA
Antibodies to HCV [4]; [10]
  A492 nm (mA) by EIA: 1604 mA
Antibodies to HCV [4]; serum sample 2, Ctrl
  A492 nm (mA) by EIA: 148 mA
Antibodies to HCV [4]; serum sample 2, pH adj
  A492 nm (mA) by EIA: 466 mA
Antibodies to HCV [4]; serum sample 3, Ctrl
  A492 nm (mA) by EIA: 9 mA
Antibodies to HCV [4]; serum sample 3, pH adj
  A492 nm (mA) by EIA: 625 mA
Antibodies to HCV [4]; serum sample 4, Ctrl
  A492 nm (mA) by EIA: 464 mA
Antibodies to HCV [4]; serum sample 4, pH adj
  A492 nm (mA) by EIA: 1144 mA
